B1: AFA-Peptide 3 (MP-3) (peptide)
peptide: H-NFVPTNVGPFAF-NH2
notes: Synthetic dodecapeptide NH2-N-F-V-P-T-N-V-G-P-F-A-F-CONH2; also called AFA-CGRP receptor antagonist peptide 3
B2: AFA-Peptide 8 (MP-8) (peptide)
peptide: H-NLVPTNVGPFAF-NH2
notes: Analog of AFA-peptide 3: NH2-N-L-V-P-T-N-V-G-P-F-A-F-CONH2
B3: AFA-Peptide 7 (MP-7) (peptide)
peptide: H-NFLPTNVGPFAF-NH2
notes: Analog of AFA-peptide 3: NH2-N-F-L-P-T-N-V-G-P-F-A-F-CONH2
B4: AFA-Peptide 10 (MP-10) (peptide)
peptide: H-NFAPTNVGPFAF-NH2
notes: Analog of AFA-peptide 3: NH2-N-F-A-P-T-N-V-G-P-F-A-F-CONH2
B5: AFA-Peptide 6 (MP-6) (peptide)
peptide: H-NFIPTNVGPFAF-NH2
notes: Analog of AFA-peptide 3: NH2-N-F-I-P-T-N-V-G-P-F-A-F-CONH2
B6: AFA-Peptide 9 (MP-9) (peptide)
peptide: H-NFFPTNVGPFAF-NH2
notes: Analog of AFA-peptide 3: NH2-N-F-F-P-T-N-V-G-P-F-A-F-CONH2

No end group written: not given here.

In this assay the target is T1, human calcitonin CGRP1 (CGRP1) membrane (human, UniProt Q16602 23-461; O60894 27-148).
T1 construct: whole, on cells; Purchased membrane preparation (Perkin Elmer), homogenised in assay buffer; the receptor stood in membranes, not intact cells; also called CGRP receptors; CGRP receptor
T1 sequence (Q16602 23-461, chain 1 of 2): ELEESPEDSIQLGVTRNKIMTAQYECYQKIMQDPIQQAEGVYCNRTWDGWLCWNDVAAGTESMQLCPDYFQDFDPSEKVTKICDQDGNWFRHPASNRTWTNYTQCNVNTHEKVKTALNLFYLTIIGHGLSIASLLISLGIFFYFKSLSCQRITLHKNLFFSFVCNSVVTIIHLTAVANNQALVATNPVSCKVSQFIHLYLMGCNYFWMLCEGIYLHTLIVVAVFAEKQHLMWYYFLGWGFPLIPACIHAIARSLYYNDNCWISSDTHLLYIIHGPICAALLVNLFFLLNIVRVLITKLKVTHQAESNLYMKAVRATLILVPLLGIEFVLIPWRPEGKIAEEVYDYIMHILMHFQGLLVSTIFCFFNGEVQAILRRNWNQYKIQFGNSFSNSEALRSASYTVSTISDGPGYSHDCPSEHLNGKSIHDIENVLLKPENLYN
T1 sequence (O60894 27-148, chain 2 of 2): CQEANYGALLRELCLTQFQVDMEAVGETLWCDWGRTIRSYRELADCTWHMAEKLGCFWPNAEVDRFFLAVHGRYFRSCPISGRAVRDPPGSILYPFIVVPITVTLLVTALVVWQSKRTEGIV
As to the kind of experiment: displacement of 0.24 nM [125I]-CGRP from human CGRP1 receptor membranes, filtration; Ki by Cheng-Prusoff; mean ± SD. The method, then:
CGRP1 membrane was homogenized in the assay buffer (50 mM Tris-HCl pH 7.4, 5 mM MgCl₂, 0.5% BSA, 0.05% Tween20). […] After 1 h of incubation, at room temperature, samples were filtered, using a Tomtec cell harvester, through glass fiber filters that had been presoaked in 0.05% polyethyleneimine and washed with the cold Tris buffer (50 mM Tris-HCl pH7.4). Filters were counted on a betaplate reader (Wallac).
Regarding B1, the Ki – broadly, the dissociation constant of the complex between target and ligand, obtained from inhibition or displacement – came out at 33.3 nM. The result for B2 reads 315 nM; that for B3, 54.8 nM; that for B4, 33.4 nM.

Take B5: the Ki was found to be 63.7 nM. Under B6 stands 49.6 nM; under YVPTAVGPFAF-NH2 (also called conventional CGRP 27-37) [CGRP 27-37], 697 nM.
